Publication PMC6744678

Biological target: T1, taxol-stabilized microtubules, P02550
T1 chain: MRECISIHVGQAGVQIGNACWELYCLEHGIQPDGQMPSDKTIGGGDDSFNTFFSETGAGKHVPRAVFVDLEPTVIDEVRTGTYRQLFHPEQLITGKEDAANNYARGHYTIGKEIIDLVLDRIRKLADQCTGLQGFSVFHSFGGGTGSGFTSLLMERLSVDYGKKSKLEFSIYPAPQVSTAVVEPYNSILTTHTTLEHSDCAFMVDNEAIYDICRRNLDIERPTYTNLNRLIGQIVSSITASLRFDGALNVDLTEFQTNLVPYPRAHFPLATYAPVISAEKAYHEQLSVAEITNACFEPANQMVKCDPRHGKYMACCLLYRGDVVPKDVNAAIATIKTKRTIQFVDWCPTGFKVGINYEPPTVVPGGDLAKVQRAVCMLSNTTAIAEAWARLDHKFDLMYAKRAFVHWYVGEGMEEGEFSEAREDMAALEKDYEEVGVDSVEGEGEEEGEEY
Experiment: GST pull-down of microtubules, quantified tubulin band intensity
Conditions: chain shown with the change; BRB80 buffer at room temperature; n=3; parent: est. 27; read off a plot

- response (relative intensity (GST = 1.0)): 25
B1: GST-tagged full-length (1-314 aa) CCDC74B M67N; L68N; A69N; L71N; L230N; L233N; L234N (protein)
chain: MSGAGVAAGTRPPSSPTPGSRRRRQRPSVGVQSLRPQSPQLRQSDPQKRNLDLEKSLQFLQQQHSENNNKNHEEIEHLKRENKDLRYKLIMNQTSQKKDSLSTSSFQSVKSISNSGKARPQPGSFNKQDSKADVPQKADLEEEPLLHNSKLDKVPGVQGQARKEKAEASNAGAACMGNSQHQGRQMGAAAHPPMILPLPLRKPTTLRQCEVLIRELWNTNLLQTQELQHNKSNNEGSQRPQAVPEEASFPRDQEATHFPKVSTKSLSKKCLLLSPPVAERAILPALKQTPKNNFAERQKRLQAMQKRRLHRSVL
